Drawing on paper doi:10.1101/2023.07.15.549169, this text covers reduction of the PPI signal against SMAD4 WT and decrease of the PPI signal with 5'-FAM-SBE4 Mut dsDNA against WT dsDNA for one molecule.

Common to all, as to experiment: AlphaScreen or HTRF
Holding throughout (settings): remark: other sources report otherwise
Background: Alpha assays give light when donor and acceptor beads are brought close together.

Experiment [1] has as its target T1, His-tagged SMAD4 R361H, Q13485.
T1 chain: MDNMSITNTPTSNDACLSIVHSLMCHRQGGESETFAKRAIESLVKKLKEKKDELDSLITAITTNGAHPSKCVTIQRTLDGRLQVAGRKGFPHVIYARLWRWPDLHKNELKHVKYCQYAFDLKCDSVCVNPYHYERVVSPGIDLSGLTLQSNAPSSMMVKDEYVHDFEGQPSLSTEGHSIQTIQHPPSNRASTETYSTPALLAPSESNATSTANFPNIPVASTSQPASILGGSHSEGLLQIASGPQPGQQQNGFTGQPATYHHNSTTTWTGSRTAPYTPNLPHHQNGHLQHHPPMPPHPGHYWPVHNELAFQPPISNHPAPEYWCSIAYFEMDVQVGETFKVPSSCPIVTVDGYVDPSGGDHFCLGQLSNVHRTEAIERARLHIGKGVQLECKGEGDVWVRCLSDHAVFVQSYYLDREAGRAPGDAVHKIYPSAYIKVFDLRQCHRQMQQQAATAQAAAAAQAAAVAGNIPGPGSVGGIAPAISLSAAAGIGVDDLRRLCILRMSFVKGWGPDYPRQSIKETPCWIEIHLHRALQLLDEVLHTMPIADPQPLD

In experiment [2] the target is T2, His-tagged SMAD4 WT (Mothers against decapentaplegic homolog 4), Q13485.
T2 chain: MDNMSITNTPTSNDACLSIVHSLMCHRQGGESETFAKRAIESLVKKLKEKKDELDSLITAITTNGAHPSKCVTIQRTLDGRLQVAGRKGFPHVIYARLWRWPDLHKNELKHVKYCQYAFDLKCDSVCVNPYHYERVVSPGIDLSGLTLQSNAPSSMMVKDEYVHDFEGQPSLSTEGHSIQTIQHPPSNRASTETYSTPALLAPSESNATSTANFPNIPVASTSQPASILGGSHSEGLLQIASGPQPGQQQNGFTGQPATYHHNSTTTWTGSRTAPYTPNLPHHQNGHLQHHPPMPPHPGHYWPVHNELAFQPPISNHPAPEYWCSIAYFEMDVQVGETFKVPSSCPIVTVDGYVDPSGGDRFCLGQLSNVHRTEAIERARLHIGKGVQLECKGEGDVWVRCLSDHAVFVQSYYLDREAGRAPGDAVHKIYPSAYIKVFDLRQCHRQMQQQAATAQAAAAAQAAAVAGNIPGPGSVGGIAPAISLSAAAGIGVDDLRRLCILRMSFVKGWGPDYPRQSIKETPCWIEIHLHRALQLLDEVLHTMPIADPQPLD

For experiment [3], the target named is T3, His-tagged SMAD4 R361C, Q13485.
T3 chain: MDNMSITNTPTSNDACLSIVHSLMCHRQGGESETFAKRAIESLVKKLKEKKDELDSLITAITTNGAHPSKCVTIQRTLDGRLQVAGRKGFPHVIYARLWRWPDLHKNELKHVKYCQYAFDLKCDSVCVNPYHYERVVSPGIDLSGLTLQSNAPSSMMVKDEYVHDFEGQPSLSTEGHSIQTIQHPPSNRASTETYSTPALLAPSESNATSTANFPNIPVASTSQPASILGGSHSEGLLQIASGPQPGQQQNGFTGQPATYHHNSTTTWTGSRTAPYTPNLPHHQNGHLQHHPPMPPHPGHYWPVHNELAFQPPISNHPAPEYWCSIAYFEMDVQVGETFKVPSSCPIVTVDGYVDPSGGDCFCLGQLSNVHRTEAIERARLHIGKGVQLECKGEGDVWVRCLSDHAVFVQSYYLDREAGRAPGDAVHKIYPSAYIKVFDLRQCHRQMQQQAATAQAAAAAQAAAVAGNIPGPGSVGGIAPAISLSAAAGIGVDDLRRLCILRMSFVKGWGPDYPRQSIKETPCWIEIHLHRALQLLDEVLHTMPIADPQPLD

B1: Flag-tagged SMAD3 WT, P84022 1-425 (natural protein)
chain: MSSILPFTPPIVKRLLGWKKGEQNGQEEKWCEKAVKSLVKKLKKTGQLDELEKAITTQNVNTKCITIPRSLDGRLQVSHRKGLPHVIYCRLWRWPDLHSHHELRAMELCEFAFNMKKDEVCVNPYHYQRVETPVLPPVLVPRHTEIPAEFPPLDDYSHSIPENTNFPAGIEPQSNIPETPPPGYLSEDGETSDHQMNHSMDAGSPNLSPNPMSPAHNNLDLQPVTYCEPAFWCSISYYELNQRVGETFHASQPSMTVDGFTDPSNSERFCLGLLSNVNRNAAVELTRRHIGRGVRLYYIGGEVFAECLSDSAIFVQSPNCNQRYGWHPATVCKIPPGCNLKIFNNQEFAALLAQSVNQGFEAVYQLTRMCTIRMSFVKGWGAEYRRQTVTSTPCWIELHLNGPLQWLDKVLTQMGSPSIRCSSVS
Consider B1, for which the reduction of the PPI signal against SMAD4 WT in experiment [1] and in experiment [3] was 75% in each case. The molecule also had a decrease of the PPI signal with 5'-FAM-SBE4 Mut dsDNA against WT dsDNA in experiment [2] of 15%.
